Test results taken from US20250270343A1 (Alector, published 2025).
Positions count from the first letter of the chain named. Values belong to the binder of their own block, whether it stands above or below them.

Assays:
[1] = target: T1, mouse GPNMB endogenously expressed on B16F10 cells (mouse, UniProt Q99P91 23-574); assay: FACS on B16F10 mouse melanoma cells (endogenous mouse GPNMB); single antibody concentration (not given); APC anti-human IgG secondary; MFI as fold over background
T1 construct: whole, on cells; also called moGPNMB
T1 sequence (looked up): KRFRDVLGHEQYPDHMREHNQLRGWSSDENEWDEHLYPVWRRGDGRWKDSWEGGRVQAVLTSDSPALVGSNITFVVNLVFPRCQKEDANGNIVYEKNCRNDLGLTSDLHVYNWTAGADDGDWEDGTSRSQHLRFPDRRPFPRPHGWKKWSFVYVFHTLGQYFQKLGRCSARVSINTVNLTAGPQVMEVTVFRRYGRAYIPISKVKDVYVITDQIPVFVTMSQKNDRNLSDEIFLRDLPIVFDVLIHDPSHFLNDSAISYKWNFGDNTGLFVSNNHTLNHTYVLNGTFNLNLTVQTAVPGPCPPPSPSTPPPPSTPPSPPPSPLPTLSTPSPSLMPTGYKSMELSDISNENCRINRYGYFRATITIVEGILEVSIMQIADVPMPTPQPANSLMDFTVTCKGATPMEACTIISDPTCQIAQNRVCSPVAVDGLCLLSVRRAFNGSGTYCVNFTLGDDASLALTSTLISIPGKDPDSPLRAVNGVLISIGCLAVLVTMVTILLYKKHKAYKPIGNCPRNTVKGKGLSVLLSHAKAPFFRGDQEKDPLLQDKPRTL
Procedure: (§1) Recombinant anti-GPNMB antibodies of the present disclosure were examined for their ability to bind human and/or mouse GPNMB expressed on Freestyle293-huGPNMB+ or B16F10 cells, respectively. B16F10 cells are a murine melanoma cell line from a C57BL/6J mouse that endogenously express high levels of mouse GPNMB. The antibodies were also tested for their ability to bind to a human macrophage cell line (U937 cells) engineered to express human GPNMB. Cells were harvested, plated at 100,000 cells/well in a 96-well round bottom plate, and incubated in 100 μl FACS buffer (PBS containing 2% FBS, 2 mM EDTA) containing anti-GPNMB monoclonal antibodies of the present disclosure for 30 minutes on ice. Cells were then washed and incubated in 100 ul FACS buffer containing 1 μg/ml APC-conjugated anti-human IgG secondary antibody for 30 minutes in ice. Cells were washed twice in cold FACS buffer and acquired on a BD FACS Canto. Data analysis and calculation of MFI values was performed with FlowJo (TreeStar) software version 10.0.7. […]

[2] = target: T2, full-length untagged human GPNMB expressed on cells (human, UniProt Q14956 23-572); assay: cell-based or functional assay
T2 sequence: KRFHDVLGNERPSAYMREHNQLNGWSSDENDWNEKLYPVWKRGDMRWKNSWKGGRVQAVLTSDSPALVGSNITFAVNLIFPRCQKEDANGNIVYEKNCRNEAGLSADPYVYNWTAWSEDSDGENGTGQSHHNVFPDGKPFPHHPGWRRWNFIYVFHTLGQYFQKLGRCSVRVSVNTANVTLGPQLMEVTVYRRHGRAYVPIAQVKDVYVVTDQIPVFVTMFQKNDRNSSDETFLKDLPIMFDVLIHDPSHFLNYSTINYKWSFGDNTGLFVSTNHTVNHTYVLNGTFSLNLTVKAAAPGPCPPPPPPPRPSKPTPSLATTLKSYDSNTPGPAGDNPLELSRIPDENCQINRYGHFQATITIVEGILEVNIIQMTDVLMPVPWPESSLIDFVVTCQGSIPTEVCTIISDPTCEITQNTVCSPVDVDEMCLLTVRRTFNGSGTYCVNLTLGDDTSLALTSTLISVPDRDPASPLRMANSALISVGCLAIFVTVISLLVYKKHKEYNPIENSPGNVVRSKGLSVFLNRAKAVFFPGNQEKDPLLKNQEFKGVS

[3] = target: T1, mouse GPNMB endogenously expressed on …; assay: FACS, B16F10 cells
Procedure: as §1

[4] = target: T3, soluble cynomolgus GPNMB (recombinant extracellular domain) (cynomolgus, UniProt Q14956 23-499 (human entry), limits assumed); assay: SPR Carterra, Ab immobilized
T3 chain: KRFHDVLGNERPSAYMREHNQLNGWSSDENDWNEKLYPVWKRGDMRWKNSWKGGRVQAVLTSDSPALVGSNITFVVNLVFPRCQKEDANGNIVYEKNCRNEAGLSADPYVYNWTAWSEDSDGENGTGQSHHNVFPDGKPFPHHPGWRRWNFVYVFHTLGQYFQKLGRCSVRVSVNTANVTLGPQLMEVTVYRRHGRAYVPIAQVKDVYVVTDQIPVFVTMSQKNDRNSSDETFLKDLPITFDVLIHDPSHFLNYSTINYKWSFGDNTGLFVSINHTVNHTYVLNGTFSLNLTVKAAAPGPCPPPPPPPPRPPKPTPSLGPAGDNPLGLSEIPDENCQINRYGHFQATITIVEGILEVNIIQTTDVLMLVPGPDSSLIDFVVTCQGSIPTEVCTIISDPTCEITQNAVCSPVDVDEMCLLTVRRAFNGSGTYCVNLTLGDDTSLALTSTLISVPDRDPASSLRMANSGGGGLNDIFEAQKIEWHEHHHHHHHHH
How it was run: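 Antibodies amine-coupled on HC200M chip in a 96-spot array; recombinant GPNMB ECD analytes injected at 2.5–600 nM, lowest to highest, without regeneration. Running buffer HBS-EP+ with 0.5 mg/ml BSA; two buffer blanks between species series. Kinetics fitted to yield affinity estimates.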

binding result [1]: no binding
CD40 (FoB) [2]: 1.7 FoB
CD80 (FoB) [2]: 1.16 FoB
GCase (FoB) [2]: 1.21 FoB
PDL1 (FoB) [2]: 1.76 FoB
MFI fold over background [3]: 1 fold
Kd [4]: 104 nM
koff [4]: 0.0033 s⁻¹
kon [4]: 32000 M⁻¹ s⁻¹
B7: anti-GPNMB antibody GPN-22 (antibody, human IgG1, V domains shown)
VH: QVQLQQPGAERVKPGASVKMSCKASGYTFTSYWITWVKQRPGQGLEWIGDIFPGSGSTNYHEKFKSKATLTVDTSSSTAYMQLSSLTSEDSAVYYCSRGYFGSSFSDYWGQGTSVTVSS
VL: DIQMTQSPSSLSASLGERVSLTCRTSQEISGYLSWLQQKPDGTIKRLIYSTSTLDSGVPKRFSGSRSGSDYSLTISSLESEDFADYYCLQYASSPPTFGSGTKLEIK
notes: chimeric

binding result [1]: no binding
CD40 (FoB) [2]: 1.9 FoB
CD80 (FoB) [2]: 1.44 FoB
GCase (FoB) [2]: 1.22 FoB
PDL1 (FoB) [2]: 1.82 FoB
MFI fold over background [3]: 1 fold
Kd [4]: 11.2 nM
koff [4]: 0.00036 s⁻¹
kon [4]: 32000 M⁻¹ s⁻¹
B8: anti-GPNMB antibody GPN-31 (antibody, human IgG1, V domains shown)
VH: EVQLQQSGPELVKPGASVKISCKASGYSFTGYYMNWVKQSPEKNLEWIGEINPNTGGTTYNQKFKAKATLTVDKSSTTAYMQLKSLTSEDSAVYYCTRPASWFDYWGQGTLVTVSA
VL: B7 VL with T25A, Y32H, S50A, T51A, S65R, S94Y, P96Y, S100G, E105A
notes: chimeric

binding result [1]: no binding
CD40 (FoB) [2]: 1.68 FoB
CD80 (FoB) [2]: 1.41 FoB
GCase (FoB) [2]: 1.24 FoB
PDL1 (FoB) [2]: 1.73 FoB
MFI fold over background [3]: 1 fold
Kd [4]: 7.4 nM
koff [4]: 0.0002 s⁻¹
kon [4]: 30000 M⁻¹ s⁻¹
B9: anti-GPNMB antibody GPN-25 (antibody, human IgG1, V domains shown)
VH: B8 VH with N44S, N54G, T55S, G57I, T77S, M81L, T97A, D104A
VL: B7 VL with L21F, T22I, T25A, Y32H, S50A, T51A, S94Y, P96Y, S100G
notes: chimeric

binding result [1]: no binding
CD40 (FoB) [2]: 1.49 FoB
CD80 (FoB) [2]: 1.19 FoB
GCase (FoB) [2]: 1.26 FoB
PDL1 (FoB) [2]: 1.5 FoB
MFI fold over background [3]: 1 fold
Kd [4]: 8.4 nM
koff [4]: 0.00012 s⁻¹
kon [4]: 14000 M⁻¹ s⁻¹
B10: anti-GPNMB antibody GPN-09 (antibody, human IgG1, V domains shown)
VH: QVQLQQSGAELVKPGASVKLSCKASGYTFTSYYIYWVKQRPGQGLEWIGEINPSNGGTYFNEKFKNKATLTVDKSSSTAYMQLSSLTSEDSAVYYCTRGGNYYAYWGQGTLVTVSA
VL: B7 VL with T25A, Y32H, S34G, S50A, T51A, S52L, S94Y, P96Y, S100G
notes: chimeric

binding result [1]: no binding
CD40 (FoB) [2]: 1.35 FoB
CD80 (FoB) [2]: 1.29 FoB
GCase (FoB) [2]: 1.18 FoB
PDL1 (FoB) [2]: 1.59 FoB
MFI fold over background [3]: 1 fold
Kd [4]: 32.8 nM
koff [4]: 0.0015 s⁻¹
kon [4]: 48000 M⁻¹ s⁻¹
B11: anti-GPNMB antibody GPN-08 (antibody, human IgG1, V domains shown)
VH: QVQLQQPGAELVKPGASVKLSCRASGYTFTSYWLHWVKQRPGQGLEWIGEINPSDGRTNYIEKVKTKATLTVDKSSSTAYMQLSSLTSEDSAVYYCARSGGNYAWFAYWGQGTLVTVSA
VL: DIVMTQSHKFMSTSVGDRVSITCKASQDVSPSVAWYQQRPGQSPKLLIYSASYRYTGVPDRFTGSGSGTDFTFTISSVQAEDLAVYYCQQHYSIPLTFGAGTKLELK
notes: chimeric

Second part, the binder before the results:

B1: anti-GPNMB antibody GPN-11 (antibody, human IgG1, V domains shown)
VH: QVQLQQPGAELVKPGASVKLSCKASGYTFTSYWMHWVKQRPGQGLEWIGEINSSNGRTNYNEKFKTKATLTVDRSSSTAYMQLSSLTSEDSAVYYCARLGYYSGSPYPYYAMDCWGQGTSVTVSS
VL: DIQMTQSPASLSVSVGETVTITCRASENIYSNLAWYQQKQGKSPQLLVYAATNLADGVPSRFSGSGSGTQYSLKINSLQSEDFGSYYCQHFWNTPPTFGGGTKLEIK
notes: chimeric
binding result [1]: no binding
CD40 (FoB) [2]: 1.7 FoB
CD80 (FoB) [2]: 1.25 FoB
GCase (FoB) [2]: 1.24 FoB
PDL1 (FoB) [2]: 1.64 FoB
MFI fold over background [3]: 1 fold
Kd [4]: 12.1 nM
koff [4]: 0.00095 s⁻¹
kon [4]: 83000 M⁻¹ s⁻¹

B2: anti-GPNMB antibody GPN-03 (antibody, human IgG1, V domains shown)
VH: QVQLQQSGPELVKPGASVKLSCKASGYTFTNYYMYWVKQRPGQGLEWIGEINPRNGGTNFNEKFKSKATLTVDKSSSTAYMQLSSLTFEDSAVYYCTTGLAYWGQGTLVTVSA
VL: DVVMTQTPLSLPVSLGDQASISCRSSQSLVHSDGNTYLHWYLQKPGQSPKLLIYKVSTRFSGVPDRFSGSGSGTDFTLKISRVEAEDLGVYFCSQSTHVPWTFGGGTKLEIK
notes: chimeric
binding result [1]: no binding
CD40 (FoB) [2]: 1.45 FoB
CD80 (FoB) [2]: 1.4 FoB
GCase (FoB) [2]: 1.47 FoB
PDL1 (FoB) [2]: 1.32 FoB
MFI fold over background [3]: 1.1 fold
Kd [4]: 38.7 nM
koff [4]: 0.0021 s⁻¹
kon [4]: 54000 M⁻¹ s⁻¹

B3: anti-GPNMB antibody GPN-34 (antibody, human IgG1, V domains shown)
VH: EVKLVESGGGLVQPGRSLKLSCAASGFNFYDYWMGWVRQAPGKGLEWIGEINKDSRTINYTPFLKDRFTISRDNAQNTLYLQMSKLGSEDTAIYYCAREGRVPFDYWGQGVMVTVSS
VL: DIQMTQSPSSMSVSLGDTVTIPCRASQDVGSYVNWFQQKPGKSPRHMIYRATNLADGVPSRFSGSRSGADYSLTISSLESEDVADYHCQQYAEYPLTFGSGTKLEIK
notes: chimeric
binding result [1]: no binding
CD40 (FoB) [2]: 1.52 FoB
CD80 (FoB) [2]: 1.36 FoB
GCase (FoB) [2]: 1.76 FoB
PDL1 (FoB) [2]: 1.56 FoB
MFI fold over background [3]: 1.1 fold
Kd [4]: 0.4 nM
koff [4]: 0.00011 s⁻¹
kon [4]: 250000 M⁻¹ s⁻¹

B4: anti-GPNMB antibody GPN-26 (antibody, human IgG1, V domains shown)
VH: B8 VH with K38R, N44S, N54S, G57I, T77N, Y80F, T97A
VL: B7 VL with T25A, Y32H, S50A, T51A, S94Y, P96Y, S100G
notes: chimeric
binding result [1]: no binding
CD40 (FoB) [2]: 1.91 FoB
CD80 (FoB) [2]: 1.4 FoB
PDL1 (FoB) [2]: 1.88 FoB
MFI fold over background [3]: 1 fold
Kd [4]: 8.9 nM
koff [4]: 0.00027 s⁻¹
kon [4]: 31000 M⁻¹ s⁻¹

B5: anti-GPNMB antibody GPN-30 (antibody, human IgG1, V domains shown)
VH: EVQLQQSGPELVNPGASVRISCKASGYSFTGYYMNWVKQSPEKSLEWIGEINPNTGFTTYNQNFKAKATLTVDKSSSTAYIQLKSLTSEDSAVYYCTRPSPSFDYWGQGTTLTVSS
VL: B7 VL with V19G, T25A, Y32H, S50A, T51A, S94Y, P96Y, S100G
notes: chimeric
binding result [1]: no binding
CD40 (FoB) [2]: 1.75 FoB
CD80 (FoB) [2]: 1.34 FoB
GCase (FoB) [2]: 1.27 FoB
PDL1 (FoB) [2]: 1.64 FoB
MFI fold over background [3]: 1 fold
Kd [4]: 5.1 nM
koff [4]: 0.00013 s⁻¹
kon [4]: 26000 M⁻¹ s⁻¹

B6: anti-GPNMB antibody GPN-07 (antibody, human IgG1, V domains shown)
VH: B10 VH with L11Q, I34M, N66S, Q82H, N101T
VL: B7 VL with T25A, I29M, Y32H, S50A, T51A, S94Y, P96Y, S100G
notes: chimeric
binding result [1]: no binding
CD40 (FoB) [2]: 1.39 FoB
CD80 (FoB) [2]: 1.29 FoB
GCase (FoB) [2]: 2.13 FoB
PDL1 (FoB) [2]: 1.67 FoB
MFI fold over background [3]: 1 fold
Kd [4]: 11.3 nM
koff [4]: 0.00025 s⁻¹
kon [4]: 22000 M⁻¹ s⁻¹
